What was measured:
[1] = test system: T1, FLAG epitope-tagged CIITA IF1 protein (f:CIITA1)
T1 sequence: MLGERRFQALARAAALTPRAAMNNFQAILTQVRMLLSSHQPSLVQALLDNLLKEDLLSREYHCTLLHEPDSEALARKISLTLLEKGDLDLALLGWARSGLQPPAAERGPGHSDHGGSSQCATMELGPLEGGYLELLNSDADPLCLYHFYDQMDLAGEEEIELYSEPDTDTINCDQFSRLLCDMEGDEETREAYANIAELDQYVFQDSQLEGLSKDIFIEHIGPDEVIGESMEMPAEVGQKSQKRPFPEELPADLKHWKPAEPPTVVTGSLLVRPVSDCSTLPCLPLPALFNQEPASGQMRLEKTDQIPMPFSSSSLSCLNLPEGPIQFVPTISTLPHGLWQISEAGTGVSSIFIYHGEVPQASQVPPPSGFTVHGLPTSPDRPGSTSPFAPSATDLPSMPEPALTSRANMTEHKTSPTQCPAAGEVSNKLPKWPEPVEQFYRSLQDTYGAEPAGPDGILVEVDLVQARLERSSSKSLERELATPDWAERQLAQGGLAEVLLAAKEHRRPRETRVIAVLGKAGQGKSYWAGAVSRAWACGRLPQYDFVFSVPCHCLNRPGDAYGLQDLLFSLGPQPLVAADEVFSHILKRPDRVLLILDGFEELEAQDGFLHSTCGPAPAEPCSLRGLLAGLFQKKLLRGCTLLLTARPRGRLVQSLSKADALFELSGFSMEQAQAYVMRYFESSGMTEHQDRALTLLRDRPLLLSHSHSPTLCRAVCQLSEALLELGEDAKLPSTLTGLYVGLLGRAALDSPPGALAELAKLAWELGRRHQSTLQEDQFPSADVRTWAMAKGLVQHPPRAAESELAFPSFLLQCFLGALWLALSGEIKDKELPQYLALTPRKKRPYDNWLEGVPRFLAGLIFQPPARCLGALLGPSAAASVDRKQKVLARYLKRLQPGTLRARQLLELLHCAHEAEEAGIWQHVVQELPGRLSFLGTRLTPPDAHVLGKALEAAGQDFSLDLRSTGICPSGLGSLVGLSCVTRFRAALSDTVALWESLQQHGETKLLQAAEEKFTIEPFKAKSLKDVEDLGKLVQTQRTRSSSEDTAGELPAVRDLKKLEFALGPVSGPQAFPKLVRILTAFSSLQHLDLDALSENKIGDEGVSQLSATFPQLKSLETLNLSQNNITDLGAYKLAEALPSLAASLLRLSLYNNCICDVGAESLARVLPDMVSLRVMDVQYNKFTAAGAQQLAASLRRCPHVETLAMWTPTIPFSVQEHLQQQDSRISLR

[2] = test system: mutant f:CIITA1(S357A) protein (FLAG epitope-tagged CIITA isoform 1 with serine 357 changed to alanine)

For Erk1/2 kinase, which “in vitro kinase assay, appearance of the upper (phosphorylated) band” value [1] is on record?
Its value is “as indicated by the appearance of the upper band, Erk1/2 phosphorylated f:CIITA1 protein”.

What about the “in vitro kinase assay, appearance of the upper (phosphorylated) band” value [2] of the same substance?
Its value is “Erk1/2 did not phosphorylate the mutant f:CIITA1(S357A) protein, which was confirmed by the absence of the upper band”.

Reference: US20090047262
